We go through 9 molecules from patent US20130005646A1 (Novo Nordisk, published 2013).

Starred links: 1 amine or outer side, 2 acyl side, 3 side chain; linkers in the order of their positions; H or OH if unused. Positions of bridges follow the written chain, without caps; N, C: chain ends. Groups on a side chain read outwards from the residue. No end group written: not given here. *: point of attachment. C20 diacid = O=C(O)CCCCCCCCCCCCCCCCCCC(=O)*; γGlu = O=C(O)[C@H](CCC(=O)[*:2])N[*:1]; AEEA = NCCOCCOCC(=O)O

Experiment [1] concerns the target T1, human calcitonin (a) receptor (human, UniProt P30988 25-474).
T1 sequence (looked up): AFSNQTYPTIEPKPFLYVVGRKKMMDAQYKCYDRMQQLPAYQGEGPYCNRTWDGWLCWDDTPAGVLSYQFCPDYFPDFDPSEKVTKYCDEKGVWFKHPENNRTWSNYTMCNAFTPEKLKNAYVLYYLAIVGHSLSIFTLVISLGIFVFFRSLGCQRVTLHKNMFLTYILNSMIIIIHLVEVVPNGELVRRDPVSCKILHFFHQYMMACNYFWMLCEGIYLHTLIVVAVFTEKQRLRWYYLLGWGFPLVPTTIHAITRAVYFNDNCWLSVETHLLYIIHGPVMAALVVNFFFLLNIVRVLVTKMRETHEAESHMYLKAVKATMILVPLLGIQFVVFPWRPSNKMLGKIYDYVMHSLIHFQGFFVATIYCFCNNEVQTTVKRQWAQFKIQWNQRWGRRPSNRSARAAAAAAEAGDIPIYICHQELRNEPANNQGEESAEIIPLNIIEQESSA
Nature of the experiment: cell-based or functional assay.

Experiment [2] deals with T2, human amylin 3(a) receptor (human calcitonin receptor + RAMP-3) (human, UniProt P30988 25-474; O60896 24-148).
T2 sequence (looked up) 1: T1 sequence (looked up)
T2 sequence (looked up) 2: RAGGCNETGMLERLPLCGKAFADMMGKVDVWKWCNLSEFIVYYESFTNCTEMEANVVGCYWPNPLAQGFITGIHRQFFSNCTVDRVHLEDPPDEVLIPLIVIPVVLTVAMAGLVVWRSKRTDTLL
Description: cell-based or functional assay.

B1: N-alpha-[(S)-4-Carboxy-4-(19-carboxynonadecanoylamino)butyryl]-[Glu14,His17,Gln21,Gln35,Pro37]-pramlintide (peptide)
peptide: {C20 diacid-γGlu}-KCNTATCATQRLAEFLHHSSQNFGPILPPTNVGSQTP-NH2
modifications: disulfide 2-7
SMILES: CC[C@H](C)[C@H](NC(=O)[C@@H]1CCCN1C(=O)CNC(=O)[C@H](Cc1ccccc1)NC(=O)[C@H](CC(N)=O)NC(=O)[C@H](CCC(N)=O)NC(=O)[C@H](CO)NC(=O)[C@H](CO)NC(=O)[C@H](Cc1c[nH]cn1)NC(=O)[C@H](Cc1c[nH]cn1)NC(=O)[C@H](CC(C)C)NC(=O)[C@H](Cc1ccccc1)NC(=O)[C@H](CCC(=O)O)NC(=O)[C@H](C)NC(=O)[C@H](CC(C)C)NC(=O)[C@H](CCCNC(=N)N)NC(=O)[C@H](CCC(N)=O)NC(=O)[C@@H](NC(=O)[C@H](C)NC(=O)[C@@H]1CSSC[C@H](NC(=O)[C@H](CCCCN)NC(=O)CC[C@H](NC(=O)CCCCCCCCCCCCCCCCCCC(=O)O)C(=O)O)C(=O)N[C@@H](CC(N)=O)C(=O)N[C@@H]([C@@H](C)O)C(=O)N[C@@H](C)C(=O)N[C@@H]([C@@H](C)O)C(=O)N1)[C@@H](C)O)C(=O)N[C@@H](CC(C)C)C(=O)N1CCC[C@H]1C(=O)N1CCC[C@H]1C(=O)N[C@H](C(=O)N[C@@H](CC(N)=O)C(=O)N[C@H](C(=O)NCC(=O)N[C@@H](CO)C(=O)N[C@@H](CCC(N)=O)C(=O)N[C@H](C(=O)N1CCC[C@H]1C(N)=O)[C@@H](C)O)C(C)C)[C@@H](C)O
Turning to B1, in experiment [1], the “CTa receptor human EC50” value amounted to 0.045 nM. In addition, the “Amylin receptor human EC50” value in experiment [2] came to 0.091 nM.

B2: N-epsilon21-[2-(2-{2-[2-(2-{2-[(S)-4-Carboxy-4-(19-carboxyheptadecanoylamino)butyrylamino]ethoxy}ethoxy)acetylamino]ethoxy}ethoxy)acetyl]-[Glu14,Lys21,His35]-pr … (peptide)
peptide: KCNTATCATQRLAEFLVHSSK([AEEA-AEEA-γGlu-19‑carboxyheptadecanoyl])NFGPILPPTNVGSHTY-NH2
modifications: disulfide 2-7
In the case of B2, in experiment [1], the “CTa receptor human EC50” value came out at 0.601 nM. Moreover, the “Amylin receptor human EC50” value in experiment [2] is 0.999 nM.

B3: N-alpha-[(S)-4-Carboxy-4-(19-carboxynonadecanoylamino)butyryl]-[Glu14,His17,Gln21,Pro37]-pramlintide (peptide)
peptide: {C20 diacid-γGlu}-KCNTATCATQRLAEFLHHSSQNFGPILPPTNVGSNTP-NH2
modifications: disulfide 2-7
SMILES: CC[C@H](C)[C@H](NC(=O)[C@@H]1CCCN1C(=O)CNC(=O)[C@H](Cc1ccccc1)NC(=O)[C@H](CC(N)=O)NC(=O)[C@H](CCC(N)=O)NC(=O)[C@H](CO)NC(=O)[C@H](CO)NC(=O)[C@H](Cc1c[nH]cn1)NC(=O)[C@H](Cc1c[nH]cn1)NC(=O)[C@H](CC(C)C)NC(=O)[C@H](Cc1ccccc1)NC(=O)[C@H](CCC(=O)O)NC(=O)[C@H](C)NC(=O)[C@H](CC(C)C)NC(=O)[C@H](CCCNC(=N)N)NC(=O)[C@H](CCC(N)=O)NC(=O)[C@@H](NC(=O)[C@H](C)NC(=O)[C@@H]1CSSC[C@H](NC(=O)[C@H](CCCCN)NC(=O)CC[C@H](NC(=O)CCCCCCCCCCCCCCCCCCC(=O)O)C(=O)O)C(=O)N[C@@H](CC(N)=O)C(=O)N[C@@H]([C@@H](C)O)C(=O)N[C@@H](C)C(=O)N[C@@H]([C@@H](C)O)C(=O)N1)[C@@H](C)O)C(=O)N[C@@H](CC(C)C)C(=O)N1CCC[C@H]1C(=O)N1CCC[C@H]1C(=O)N[C@H](C(=O)N[C@@H](CC(N)=O)C(=O)N[C@H](C(=O)NCC(=O)N[C@@H](CO)C(=O)N[C@@H](CC(N)=O)C(=O)N[C@H](C(=O)N1CCC[C@H]1C(N)=O)[C@@H](C)O)C(C)C)[C@@H](C)O
Consider B3, for which the “CTa receptor human EC50” value in experiment [1] turned out to be 0.0315 nM. For the same molecule, the “Amylin receptor human EC50” value in experiment [2] stood at 0.0555 nM.

B4: N-epsilon25-[2-(2-{2-[2-(2-{2-[(S)-4-Carboxy-4-(19-carboxyheptadecanoylamino)butyrylamino]ethoxy}ethoxy)acetylamino]ethoxy}ethoxy)acetyl]-[Glu14,His17,Ser21,Lys … (peptide)
peptide: KCNTATCATQRLAEFLHHSSSNFGK([AEEA-AEEA-γGlu-19‑carboxyheptadecanoyl])ILSSTNVGSHTY-NH2
modifications: disulfide 2-7
With B4, the “CTa receptor human EC50” value in experiment [1] came out at 0.142 nM. Further, the “Amylin receptor human EC50” value in experiment [2] is 0.416 nM.

B5: N-alpha-[(S)-4-Carboxy-4-(19-carboxynonadecanoylamino)butyryl]-[Glu14,His17,Gln35,Pro37]-pramlintide (peptide)
peptide: {C20 diacid-γGlu}-KCNTATCATQRLAEFLHHSSNNFGPILPPTNVGSQTP-NH2
modifications: disulfide 2-7
SMILES: CC[C@H](C)[C@H](NC(=O)[C@@H]1CCCN1C(=O)CNC(=O)[C@H](Cc1ccccc1)NC(=O)[C@H](CC(N)=O)NC(=O)[C@H](CC(N)=O)NC(=O)[C@H](CO)NC(=O)[C@H](CO)NC(=O)[C@H](Cc1c[nH]cn1)NC(=O)[C@H](Cc1c[nH]cn1)NC(=O)[C@H](CC(C)C)NC(=O)[C@H](Cc1ccccc1)NC(=O)[C@H](CCC(=O)O)NC(=O)[C@H](C)NC(=O)[C@H](CC(C)C)NC(=O)[C@H](CCCNC(=N)N)NC(=O)[C@H](CCC(N)=O)NC(=O)[C@@H](NC(=O)[C@H](C)NC(=O)[C@@H]1CSSC[C@H](NC(=O)[C@H](CCCCN)NC(=O)CC[C@H](NC(=O)CCCCCCCCCCCCCCCCCCC(=O)O)C(=O)O)C(=O)N[C@@H](CC(N)=O)C(=O)N[C@@H]([C@@H](C)O)C(=O)N[C@@H](C)C(=O)N[C@@H]([C@@H](C)O)C(=O)N1)[C@@H](C)O)C(=O)N[C@@H](CC(C)C)C(=O)N1CCC[C@H]1C(=O)N1CCC[C@H]1C(=O)N[C@H](C(=O)N[C@@H](CC(N)=O)C(=O)N[C@H](C(=O)NCC(=O)N[C@@H](CO)C(=O)N[C@@H](CCC(N)=O)C(=O)N[C@H](C(=O)N1CCC[C@H]1C(N)=O)[C@@H](C)O)C(C)C)[C@@H](C)O
Regarding B5, in experiment [1], the “CTa receptor human EC50” value amounted to 0.097 nM. Moreover, the “Amylin receptor human EC50” value in experiment [2] was 0.103 nM.

B6: N-epsilon21-[2-(2-{2-[2-(2-{2-[(S)-4-Carboxy-4-(19-carboxyheptadecanoylamino)butyrylamino]ethoxy}ethoxy)acetylamino]ethoxy}ethoxy)acetyl]-[Glu14,Lys21,Ser28,Ser … (peptide)
peptide: KCNTATCATQRLAEFLVHSSK([AEEA-AEEA-γGlu-19‑carboxyheptadecanoyl])NFGPILSSTNVGSHTY-NH2
modifications: disulfide 2-7
Turning to B6, the “CTa receptor human EC50” value in experiment [1] was found to be 0.336 nM. Moreover, the “Amylin receptor human EC50” value in experiment [2] turned out to be 0.858 nM.

B7: N-alpha-[(S)-4-Carboxy-4-(19-carboxynonadecanoylamino)butyryl]-[Glu1,Glu14,Gln21,Gln35,Pro37]-pramlintide (peptide)
peptide: {C20 diacid-γGlu}-ECNTATCATQRLAEFLVHSSQNFGPILPPTNVGSQTP-NH2
modifications: disulfide 2-7
SMILES: CC[C@H](C)[C@H](NC(=O)[C@@H]1CCCN1C(=O)CNC(=O)[C@H](Cc1ccccc1)NC(=O)[C@H](CC(N)=O)NC(=O)[C@H](CCC(N)=O)NC(=O)[C@H](CO)NC(=O)[C@H](CO)NC(=O)[C@H](Cc1c[nH]cn1)NC(=O)[C@@H](NC(=O)[C@H](CC(C)C)NC(=O)[C@H](Cc1ccccc1)NC(=O)[C@H](CCC(=O)O)NC(=O)[C@H](C)NC(=O)[C@H](CC(C)C)NC(=O)[C@H](CCCNC(=N)N)NC(=O)[C@H](CCC(N)=O)NC(=O)[C@@H](NC(=O)[C@H](C)NC(=O)[C@@H]1CSSC[C@H](NC(=O)[C@H](CCC(=O)O)NC(=O)CC[C@H](NC(=O)CCCCCCCCCCCCCCCCCCC(=O)O)C(=O)O)C(=O)N[C@@H](CC(N)=O)C(=O)N[C@@H]([C@@H](C)O)C(=O)N[C@@H](C)C(=O)N[C@@H]([C@@H](C)O)C(=O)N1)[C@@H](C)O)C(C)C)C(=O)N[C@@H](CC(C)C)C(=O)N1CCC[C@H]1C(=O)N1CCC[C@H]1C(=O)N[C@H](C(=O)N[C@@H](CC(N)=O)C(=O)N[C@H](C(=O)NCC(=O)N[C@@H](CO)C(=O)N[C@@H](CCC(N)=O)C(=O)N[C@H](C(=O)N1CCC[C@H]1C(N)=O)[C@@H](C)O)C(C)C)[C@@H](C)O
Consider B7, for which the “CTa receptor human EC50” value in experiment [1] came out at 0.496 nM. The “Amylin receptor human EC50” value in experiment [2] came out at 1.51 nM.

B8: N-alpha-[(S)-4-Carboxy-4-(19-carboxynonadecanoylamino)butyryl]-[Gly1,Glu14,His17,Gln21,Gln35,Pro37]-pramlintide (peptide)
peptide: {C20 diacid-γGlu}-GCNTATCATQRLAEFLHHSSQNFGPILPPTNVGSQTP-NH2
modifications: disulfide 2-7
SMILES: CC[C@H](C)[C@H](NC(=O)[C@@H]1CCCN1C(=O)CNC(=O)[C@H](Cc1ccccc1)NC(=O)[C@H](CC(N)=O)NC(=O)[C@H](CCC(N)=O)NC(=O)[C@H](CO)NC(=O)[C@H](CO)NC(=O)[C@H](Cc1c[nH]cn1)NC(=O)[C@H](Cc1c[nH]cn1)NC(=O)[C@H](CC(C)C)NC(=O)[C@H](Cc1ccccc1)NC(=O)[C@H](CCC(=O)O)NC(=O)[C@H](C)NC(=O)[C@H](CC(C)C)NC(=O)[C@H](CCCNC(=N)N)NC(=O)[C@H](CCC(N)=O)NC(=O)[C@@H](NC(=O)[C@H](C)NC(=O)[C@@H]1CSSC[C@H](NC(=O)CNC(=O)CC[C@H](NC(=O)CCCCCCCCCCCCCCCCCCC(=O)O)C(=O)O)C(=O)N[C@@H](CC(N)=O)C(=O)N[C@@H]([C@@H](C)O)C(=O)N[C@@H](C)C(=O)N[C@@H]([C@@H](C)O)C(=O)N1)[C@@H](C)O)C(=O)N[C@@H](CC(C)C)C(=O)N1CCC[C@H]1C(=O)N1CCC[C@H]1C(=O)N[C@H](C(=O)N[C@@H](CC(N)=O)C(=O)N[C@H](C(=O)NCC(=O)N[C@@H](CO)C(=O)N[C@@H](CCC(N)=O)C(=O)N[C@H](C(=O)N1CCC[C@H]1C(N)=O)[C@@H](C)O)C(C)C)[C@@H](C)O
As for B8, the “CTa receptor human EC50” value in experiment [1] was 0.072 nM. Further, the “Amylin receptor human EC50” value in experiment [2] is 0.12 nM.

B9: N-epsilon25-[2-(2-{2-[2-(2-{2-[(S)-4-Carboxy-4-(19-carboxyheptadecanoylamino)butyrylamino]ethoxy}ethoxy)acetylamino]ethoxy}ethoxy)acetyl]-[His17,His21,Lys25,Ser … (peptide)
peptide: KCNTATCATQRLANFLHHSSHNFGK([AEEA-AEEA-γGlu-19‑carboxyheptadecanoyl])ILSSTNVGSHTY-NH2
modifications: disulfide 2-7
Turning to B9, in experiment [1], the “CTa receptor human EC50” value is 0.194 nM. For the same molecule, in experiment [2], the “Amylin receptor human EC50” value was 0.39 nM.
